# Measurements from paper PMC3912051, “The B-Subdomain of the Xenopus laevis XFIN KRAB-AB Domain Is Responsible for Its Weaker Transcriptional Repressor Activity Compared to Human ZNF10/Kox1” (PLoS ONE, 2014).
# B1: GST-ZNF10-KRAB-AB (KRAB-AB domain of human ZNF10/Kox1 fused to glutathione S-transferase) (domain or fragment)
# chain: not shown
# Biological target: TRIM28 (endogenous human TRIM28 protein) (human (endogenous in HeLa), UniProt Q13263 1-835)
# Assay: cell-based or functional assay
# Sequence of TRIM28 (endogenous human TRIM28 protein) (Q13263 whole entry): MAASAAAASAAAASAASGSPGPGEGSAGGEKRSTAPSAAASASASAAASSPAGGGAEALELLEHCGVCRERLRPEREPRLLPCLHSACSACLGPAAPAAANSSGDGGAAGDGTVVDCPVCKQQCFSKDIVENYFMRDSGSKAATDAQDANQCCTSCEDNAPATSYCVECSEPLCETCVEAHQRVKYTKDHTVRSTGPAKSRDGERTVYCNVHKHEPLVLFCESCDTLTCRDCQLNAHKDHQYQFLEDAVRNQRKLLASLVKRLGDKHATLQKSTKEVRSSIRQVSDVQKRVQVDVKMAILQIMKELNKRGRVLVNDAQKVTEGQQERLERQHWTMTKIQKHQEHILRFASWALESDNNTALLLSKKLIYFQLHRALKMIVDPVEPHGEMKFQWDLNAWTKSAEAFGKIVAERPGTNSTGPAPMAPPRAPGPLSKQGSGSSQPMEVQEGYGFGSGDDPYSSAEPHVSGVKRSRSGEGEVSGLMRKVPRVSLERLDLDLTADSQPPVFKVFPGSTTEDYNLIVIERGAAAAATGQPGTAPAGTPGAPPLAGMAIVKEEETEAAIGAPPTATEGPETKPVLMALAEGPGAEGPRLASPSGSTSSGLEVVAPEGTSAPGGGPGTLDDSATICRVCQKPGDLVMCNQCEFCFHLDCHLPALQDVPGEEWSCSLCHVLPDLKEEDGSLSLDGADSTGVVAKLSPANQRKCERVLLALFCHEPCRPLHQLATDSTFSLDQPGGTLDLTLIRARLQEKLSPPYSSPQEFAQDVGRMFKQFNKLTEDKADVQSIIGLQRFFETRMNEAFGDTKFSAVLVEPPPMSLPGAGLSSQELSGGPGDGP
binder,measurement,value
B1,fold repression of a Gal4-site luciferase reporter by Gal4-ZNF10-KRAB-AB in EPC fish cells with co-transfected human TRIM28 (negligible without it),~2 fold
